Assay results published in the supplement of paper PMC10899765.

The sequences below were run on MCF10A (assay: percent viability (nuclei count relative to siNT); higher = more viable cells). Conditions: 20 nM; 72 h.
Procedure: (§1)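 After 72 h, cells were fixed and stained with Hoechst and anti-fibrillarin, and nucleoli per nucleus were counted with CellProfiler. Values are plate-adjusted percent effect for the one-nucleolus and 5+ nucleoli phenotypes, normalised to siNT (0%) and to the positive controls siNOL11 or siKIF11 (100%), as the mean of biological triplicates. Percent viability is the nuclei count relative to siNT.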
“AGGCAGUGUAGUUAGCUGAUUGC [hsa-miR-34c-5p]” showed a percent viability of 13.2%. For ACUUACAGACAAGAGCCUUGCUC [hsa-miR-600], the percent viability was 145%. With UAUCGUAUCGUAUUGUAUUGU [hsa-miR-5686] the percent viability was 93.8%. For GGCCACUGAGUCAGCACCA [hsa-miR-4252], the percent viability was 46.1%. Sequence UUUCUAUGUUAGUUGGAAG [hsa-miR-7159-3p] has a percent viability of 26.4%. “CUCCCCUCUCUUUCCUGUUCAG [hsa-miR-6826-3p]” showed a percent viability of 52.3%. In the case of “UGAAGCUCUAAGGUUCCGCCUGC [hsa-miR-3928-5p]”, the percent viability is reported as 23.8%. With “ACUUGGGCAGGAGGGACCCUGUAUG [hsa-miR-6774-5p]” the percent viability was 22%. With ACUCCAAGAAGAAUCUAGACAG [hsa-miR-5695] the percent viability was 183%. With AGAGGCUGGCCGUGAUGAAUUC [hsa-miR-485-5p] the percent viability was 216%. For “UAAUCCUUGCUACCUGGGUGAGA [hsa-miR-500a-5p]”, the percent viability was 55%. UGGGUGGUCUGGAGAUUUGUGC [hsa-miR-1293] showed a percent viability of 7.23%. CUGGAGAUAUGGAAGAGCUGUGU [hsa-miR-1270] showed a percent viability of 34.1%. With UGGACGGAGAACUGAUAAGGGU [hsa-miR-184] the percent viability was 43%. Work on AAUGUAAACAGGCUUUUUGCU [hsa-miR-4495] yielded a percent viability of 68.8%. For UCAGGCAGUGUGGGUAUCAGAU [hsa-miR-4692], the percent viability was 23.4%. Work on CCCGGAGCCAGGAUGCAGCUC [hsa-miR-1203] yielded a percent viability of 68.6%. “CCUGCUGGUCAGGAGUGGAUACUG [hsa-miR-3692-5p]” was tested, and the percent viability was 32.9%. In the case of “UUUCCCUUCAGAGCCUGGCUUU [hsa-miR-4755-5p]”, the percent viability is reported as 52.8%. For UAUGUCUGCUGACCAUCACCUU [hsa-miR-654-3p], the percent viability was 38%. With UCAUAUUGCUUCUUUCU [hsa-miR-1279] the percent viability was 187%. Sequence UGGACCUCUCCUCCCCAG [hsa-miR-6861-3p] has a percent viability of 40.5%. “UCUCUCUCCCACUUCCCUGCAG [hsa-miR-7110-3p]” showed a percent viability of 25.4%. In the case of UUCACUGGAGUUUGUUUCAAUA [hsa-miR-653-3p], the percent viability is reported as 57.9%. In the case of AUUGUAGAACCUAAGAUUGGCC [hsa-miR-3674], the percent viability is reported as 27.9%. In the case of “UGCCCCACCUGCUGACCACCCUC [hsa-miR-4758-3p]”, the percent viability is reported as 76.4%. CAAAGUGAUGAGUAAUACUGGCUG [hsa-miR-3609] gave a percent viability of 98.3%. Sequence UCCAGCAUCAGUGAUUUUGUUG [hsa-miR-338-3p] has a percent viability of 98.2%. Sequence “CAACCUCGACGAUCUCCUCAGC [hsa-miR-3150a-5p]” has a percent viability of 171%. With CUGGACUUUGAUCUUGCCAUAA [hsa-miR-8058] the percent viability was 58.9%. In the case of CGGCUGGAGGUGUGAGGA [hsa-miR-3652], the percent viability is reported as 24%. “CCCCGGUGUUGGGGCGCGUCUGC [hsa-miR-4783-3p]” showed a percent viability of 49.5%. In the case of “UCAGUCACAUAUCUAGUGUCUA [hsa-miR-4704-3p]”, the percent viability is reported as 54.4%. With UGUCUGCCCGCAUGCCUGCCUCU [hsa-miR-346] the percent viability was 32.5%. UCUGUGAUAGAGAUUCUUUGCU [hsa-miR-4679] gave a percent viability of 103%. CAAAUUCGUAUCUAGGGGAAUA [hsa-miR-10a-3p] gave a percent viability of 84.8%. “UUAGGGAGUAGAAGGGUGGGGAG [hsa-miR-3162-5p]” showed a percent viability of 52.8%. In the case of AUUCUGCAUUUUUAGCAAGUUC [hsa-miR-544a], the percent viability is reported as 26.6%. Sequence AGAGGUAUAGGGCAUGGGAA [hsa-miR-202-3p] has a percent viability of 42.3%. GGAGGAACCUUGGAGCUUCGGC [hsa-miR-3928] was tested, and the percent viability was 50%. UGAGGGUGUCAGCAGGUGACG [hsa-miR-6804-5p] showed a percent viability of 11.7%. Sequence GCGGGGCUGGGCGCGCG [hsa-miR-4508] has a percent viability of 90.5%. AAUAAAGUUCAUGUAUGGCAA [hsa-miR-5590-3p] was tested, and the percent viability was 61.8%. Work on CCGCCUUCUCUCCUCCCCCAG [hsa-miR-6880-3p] yielded a percent viability of 117%. Sequence “CUACUUCUACCUGUGUUAUCAU [hsa-miR-3682-5p]” has a percent viability of 25.2%. In the case of UGAGGGAGGAGGUUGGGUA [hsa-miR-6133], the percent viability is reported as 17.2%. In the case of GUUGGGACAAGAGGACGGUCUU [hsa-miR-3122], the percent viability is reported as 87.3%. With ACAGCACUGCCUGGUCAGA [hsa-miR-383-3p] the percent viability was 54.9%. In the case of UGUGACAGAUUGAUAACUGAAA [hsa-miR-542-3p], the percent viability is reported as 39.5%. UCUAGUAAGAGUGGCAGUCGA [hsa-miR-628-3p] showed a percent viability of 55.8%. “AGACACAUUUGGAGAGGGACCC [hsa-miR-642b-3p]” showed a percent viability of 71.1%. Work on AUAGGACUCAUAUAGUGCCAG [hsa-miR-3117-3p] yielded a percent viability of 35.4%. CGCGCGGCCGUGCUCGGAGCAG [hsa-miR-4479] gave a percent viability of 34.8%. In the case of ACUGGACUUAGGGUCAGAAGGC [hsa-miR-422a], the percent viability is reported as 37.8%. Work on “UGGGAUGAGGGAUUGAAGUGGA [hsa-miR-5187-5p]” yielded a percent viability of 25.8%. With “AAAAGUAAUUGCGAGUUUUACC [hsa-miR-548a-5p]” the percent viability was 172%. For UAGGACACAUGGUCUACUUCU [hsa-miR-1197], the percent viability was 61.7%. For UGGAGAGAAAGGCAGUA [hsa-miR-4306], the percent viability was 13.5%. Sequence “CAAGCCUCUCCUGCCCUUCCAG [hsa-miR-7109-3p]” has a percent viability of 51.1%. Sequence AGGGGGAAAGUUCUAUAGUCC [hsa-miR-625-5p] has a percent viability of 12.6%.

Each sequence was assayed on MCF10A (assay: 5+ nucleoli phenotype percent effect (relative to siNT 0% and siKIF11 100%); higher = more cells with five or more nucleoli). Conditions: 20 nM; 72 h.
Procedure: as §1
For “AGGCAGUGUAGUUAGCUGAUUGC [hsa-miR-34c-5p]”, the “5+ nucleoli phenotype percent effect” value was -6.79%. For ACUUACAGACAAGAGCCUUGCUC [hsa-miR-600], the “5+ nucleoli phenotype percent effect” value was 41.8%. UAUCGUAUCGUAUUGUAUUGU [hsa-miR-5686] was tested, and the “5+ nucleoli phenotype percent effect” value was 39.8%. GGCCACUGAGUCAGCACCA [hsa-miR-4252] was tested, and the “5+ nucleoli phenotype percent effect” value was 5.41%. In the case of UUUCUAUGUUAGUUGGAAG [hsa-miR-7159-3p], the “5+ nucleoli phenotype percent effect” value is reported as 0.357%. “CUCCCCUCUCUUUCCUGUUCAG [hsa-miR-6826-3p]” was tested, and the “5+ nucleoli phenotype percent effect” value was -9.68%. With “UGAAGCUCUAAGGUUCCGCCUGC [hsa-miR-3928-5p]” the “5+ nucleoli phenotype percent effect” value was -19.2%. For “ACUUGGGCAGGAGGGACCCUGUAUG [hsa-miR-6774-5p]”, the “5+ nucleoli phenotype percent effect” value was -35.9%. For ACUCCAAGAAGAAUCUAGACAG [hsa-miR-5695], the “5+ nucleoli phenotype percent effect” value was 39.3%. In the case of AGAGGCUGGCCGUGAUGAAUUC [hsa-miR-485-5p], the “5+ nucleoli phenotype percent effect” value is reported as 22.1%. For “UAAUCCUUGCUACCUGGGUGAGA [hsa-miR-500a-5p]”, the “5+ nucleoli phenotype percent effect” value was -16.1%. In the case of UGGGUGGUCUGGAGAUUUGUGC [hsa-miR-1293], the “5+ nucleoli phenotype percent effect” value is reported as -9.27%. With CUGGAGAUAUGGAAGAGCUGUGU [hsa-miR-1270] the “5+ nucleoli phenotype percent effect” value was -41.4%. UGGACGGAGAACUGAUAAGGGU [hsa-miR-184] was tested, and the “5+ nucleoli phenotype percent effect” value was 80.3%. With AAUGUAAACAGGCUUUUUGCU [hsa-miR-4495] the “5+ nucleoli phenotype percent effect” value was 29.4%. For UCAGGCAGUGUGGGUAUCAGAU [hsa-miR-4692], the “5+ nucleoli phenotype percent effect” value was -11.4%. For CCCGGAGCCAGGAUGCAGCUC [hsa-miR-1203], the “5+ nucleoli phenotype percent effect” value was 4.95%. For “CCUGCUGGUCAGGAGUGGAUACUG [hsa-miR-3692-5p]”, the “5+ nucleoli phenotype percent effect” value was 6.3%. In the case of “UUUCCCUUCAGAGCCUGGCUUU [hsa-miR-4755-5p]”, the “5+ nucleoli phenotype percent effect” value is reported as 1.53%. With UAUGUCUGCUGACCAUCACCUU [hsa-miR-654-3p] the “5+ nucleoli phenotype percent effect” value was -34.7%. UCAUAUUGCUUCUUUCU [hsa-miR-1279] was tested, and the “5+ nucleoli phenotype percent effect” value was 35.8%. UGGACCUCUCCUCCCCAG [hsa-miR-6861-3p] was tested, and the “5+ nucleoli phenotype percent effect” value was 7.71%. In the case of “UCUCUCUCCCACUUCCCUGCAG [hsa-miR-7110-3p]”, the “5+ nucleoli phenotype percent effect” value is reported as 1.36%. With UUCACUGGAGUUUGUUUCAAUA [hsa-miR-653-3p] the “5+ nucleoli phenotype percent effect” value was -0.303%. AUUGUAGAACCUAAGAUUGGCC [hsa-miR-3674] was tested, and the “5+ nucleoli phenotype percent effect” value was -29.6%. With “UGCCCCACCUGCUGACCACCCUC [hsa-miR-4758-3p]” the “5+ nucleoli phenotype percent effect” value was 31.8%. CAAAGUGAUGAGUAAUACUGGCUG [hsa-miR-3609] was tested, and the “5+ nucleoli phenotype percent effect” value was 2.01%. UCCAGCAUCAGUGAUUUUGUUG [hsa-miR-338-3p] was tested, and the “5+ nucleoli phenotype percent effect” value was 26.3%. With “CAACCUCGACGAUCUCCUCAGC [hsa-miR-3150a-5p]” the “5+ nucleoli phenotype percent effect” value was 22.1%. In the case of CUGGACUUUGAUCUUGCCAUAA [hsa-miR-8058], the “5+ nucleoli phenotype percent effect” value is reported as -11.1%.
